Key:
[1] = molecular target: T1, His-tagged c-Myc (human, UniProt P01106 1-454, labelled with the NT-647-NHS dye); assay: MST; Monolith NT.115; NT-647-NHS-labelled c-Myc held constant (416 nM stock mixed 1:1), MDK in 16 serial dilutions; PBSP (1x PBS + 0.1% Pluronic F-127); standard treated capillaries; details: both partners purified
T1 construct: c-Myc; plasmid constructed by Tsingke Biotechnology Co., Ltd. (Beijing); also called recombinant c-Myc protein; source: bacterial BL21 cells, purified (Ni-NTA agarose)
T1 sequence (P01106 whole entry): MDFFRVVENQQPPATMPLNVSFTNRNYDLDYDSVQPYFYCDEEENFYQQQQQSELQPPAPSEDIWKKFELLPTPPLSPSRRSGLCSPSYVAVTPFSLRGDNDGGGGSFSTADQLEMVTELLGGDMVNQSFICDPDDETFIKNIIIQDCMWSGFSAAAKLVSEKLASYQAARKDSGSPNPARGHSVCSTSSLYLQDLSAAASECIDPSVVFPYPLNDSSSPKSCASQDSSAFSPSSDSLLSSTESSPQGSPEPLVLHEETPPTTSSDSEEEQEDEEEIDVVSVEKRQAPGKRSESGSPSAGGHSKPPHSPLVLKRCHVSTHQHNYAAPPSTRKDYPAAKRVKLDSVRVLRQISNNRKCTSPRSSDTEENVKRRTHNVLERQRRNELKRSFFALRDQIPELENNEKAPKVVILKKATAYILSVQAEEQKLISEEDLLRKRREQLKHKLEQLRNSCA

[2] = molecular target: T1, His-tagged c-Myc; assay: MST; as the MST of MDK and c-Myc, after the addition of 1 µM ACT001; details: both partners purified

B1: Recombinant human MDK protein (natural protein, UniProt P21741 21-143, looked up)
chain: VAKKKDKVKKGGPGSECAEWAWGPCTPSSKDCGVGFREGTCGAQTQRIRCRVPCNWKKEFGADCKYKFENWGACDGGTGTKVRQGTLKKARYNAQCQETIRVTKPCTPKTKAKAKAKKGKGKD
notes: recombinant human midkine, bought; also called midkine; source: bought: Zeye Biotechnology Corporation (ZY631H02P, Shanghai)
- Kd [1]: 18.8 nM
- Kd [2]: 1540 nM

Reference: paper PMC12137620, “Targeting the MDK/c‐Myc complex to overcome temozolomide resistance in glioma” (Clinical and Translational Medicine, 2025)
